Test results as given in paper PMC3988567 (RNA, 2014).
Several values for one entry are separate records, joined by “and”; a condition that tells them apart may be missing. Identical values can stand only once. Values belong to the binder of their own block, whether it stands above or below them.

Tests used:
ubiquitin = ubiquitin (UniProt P0CG48 1-76); experiment: ITC
Full-length Snu66 = target: T1, Full-length Snu66 (S. cerevisiae, UniProt Q12420 1-587); experiment: pull-down
T1 sequence: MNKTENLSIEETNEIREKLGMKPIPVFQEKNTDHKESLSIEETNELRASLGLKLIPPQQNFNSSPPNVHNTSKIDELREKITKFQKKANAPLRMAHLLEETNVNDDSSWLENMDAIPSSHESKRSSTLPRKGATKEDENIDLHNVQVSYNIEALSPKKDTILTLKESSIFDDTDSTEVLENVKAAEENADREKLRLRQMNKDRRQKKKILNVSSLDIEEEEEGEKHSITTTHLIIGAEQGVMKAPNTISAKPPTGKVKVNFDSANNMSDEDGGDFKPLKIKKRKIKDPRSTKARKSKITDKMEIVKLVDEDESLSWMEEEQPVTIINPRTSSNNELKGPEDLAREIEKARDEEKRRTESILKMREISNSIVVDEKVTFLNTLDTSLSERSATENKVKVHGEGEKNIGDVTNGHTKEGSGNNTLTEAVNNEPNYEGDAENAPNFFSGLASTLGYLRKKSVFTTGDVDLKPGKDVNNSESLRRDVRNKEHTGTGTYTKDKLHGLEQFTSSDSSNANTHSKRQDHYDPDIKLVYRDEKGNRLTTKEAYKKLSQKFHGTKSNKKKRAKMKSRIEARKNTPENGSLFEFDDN

- Kd (ubiquitin): 2400 nM and 2300 nM
B1: ZnF-UBP domain from USP5 (domain or fragment)
chain: KQEVQAWDGEVRQVSKHAFSLKQLDNPARIPPCGWKCSKCDMRENLWLNLTDGSILCGRRYFDGSGGNNHAVEHYRETGYPLAVKLGTITPDGADVYSYDEDDMVLDPSLAEHLSHFGIDMLKMQKTDK

- binding result (Full-length Snu66): binds
B2: GST-Hub1 (natural protein)
chain: MIEVVVNDRLGKKVRVKCLAEDSVGDFKKVLSLQIGTQPNKIVLQKGGSVLKDHISLEDYEVHDQTNLELYYL
